For two substances, Counts, SBR and Kd results are on record in US20190360025A1.

A word on the Kd: it is the free concentration of one partner at which half of the binding sites on the other are occupied at equilibrium, for simple one-to-one binding.

The target in experiment [1] is vascular endothelial growth factor (VEGF), R&D Systems 293-VE-010 (human) (UniProt P15692). The experiment is described as follows: t-PLA, human plasma; VEGF 1.00E-12 M.
The target is the same in experiment [2]. The experiment is described as follows: t-PLA, buffer; VEGF 1.00E-08 M.
Experiment [3] has the same target. The experiment is described as follows: t-PLA with preamplification; VEGF 1.00E-13 M.
The target is the same in experiment [4]. As to the kind of experiment: BLI (Octet RED), antibody on protein G sensors, 1:1 global fit.
Experiment [5] shares this target. As to the kind of experiment: t-PLA with preamplification; VEGF 1.00E-12 M.
For experiment [6] the target is unchanged. The experiment is described as follows: c-PLA, human plasma; VEGF 1.00E-12 M.
Experiment [7] has the same target. The experiment is described as follows: t-PLA with preamplification; VEGF 1.00E-08 M.
Experiment [8] shares this target. As to the kind of experiment: c-PLA, human plasma; VEGF 1.00E-13 M.
Experiment [9] has the same target. The experiment is described as follows: t-PLA with preamplification; VEGF 1.00E-09 M.
Experiment [10] has the same target. As to the kind of experiment: c-PLA, chicken plasma; VEGF 1.00E-11 M.
Experiment [11] has the same target. The experiment is described as follows: t-PLA, chicken plasma; VEGF 1.00E-13 M.
The target is the same in experiment [12]. As to the kind of experiment: c-PLA, human plasma; VEGF 1.00E-10 M.
Experiment [13] has the same target. As to the kind of experiment: c-PLA with preamplification; VEGF 1.00E-10 M.
For experiment [14], the target named is tumor necrosis factor alpha (TNF-α), R&D Systems 210-TA-005 (UniProt P01375). The experiment is described as follows: c-PLA 10X probes, buffer; TNF-α 1.00E-11 M.
Chain of UniProt P01375 (P01375 77-233 limits assumed): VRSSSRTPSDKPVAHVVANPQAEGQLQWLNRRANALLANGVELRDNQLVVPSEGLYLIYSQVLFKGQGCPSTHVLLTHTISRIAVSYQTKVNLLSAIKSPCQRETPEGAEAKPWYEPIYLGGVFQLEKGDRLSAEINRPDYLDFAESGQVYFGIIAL
For experiment [15] the target is unchanged. As to the kind of experiment: t-PLA 1X probes, human plasma; TNF-α 1.00E-08 M.
Experiment [16] shares this target. The experiment is described as follows: t-PLA 1X probes, human plasma; TNF-α 1.00E-10 M.
For experiment [17] the target is unchanged. As to the kind of experiment: c-PLA 10X probes, buffer; TNF-α 1.00E-09 M.
For experiment [18] the target is unchanged. The experiment is described as follows: BLI (Octet RED), antibody on protein G sensors, 1:1 global fit. On the technique in general: BLI is a label-free optical method that tracks binding on a fibre tip over time.
For experiment [19] the target is unchanged. As to the kind of experiment: t-PLA 1X probes, buffer; TNF-α 1.00E-09 M.
The target is the same in experiment [20]. The experiment is described as follows: t-PLA 1X probes, human plasma; TNF-α 5.00E-07 M.
The target is the same in experiment [21]. The experiment is described as follows: c-PLA, buffer; TNF-α 1.00E-10 M.
For experiment [22] the target is unchanged. As to the kind of experiment: t-PLA, buffer; TNF-α 1.00E-11 M.
Experiment [23] has the same target. As to the kind of experiment: c-PLA 10X probes, human plasma; TNF-α 1.00E-13 M.
Experiment [24] has the same target. The experiment is described as follows: t-PLA, buffer; TNF-α 1.00E-12 M.
Experiment [25] has the same target. The experiment is described as follows: c-PLA 10X probes, human plasma; TNF-α 1.00E-09 M.
Experiment [26] has the same target. As to the kind of experiment: t-PLA 1X probes, buffer; TNF-α 1.00E-11 M.
Experiment [27] has the same target. As to the kind of experiment: t-PLA, buffer; TNF-α 5.00E-07 M.
For experiment [28] the target is unchanged. As to the kind of experiment: c-PLA 10X probes, human plasma; TNF-α 1.00E-08 M.

Chain of UniProt P15692 (P15692 other isoform, or with tags, fused parts or gaps limits assumed): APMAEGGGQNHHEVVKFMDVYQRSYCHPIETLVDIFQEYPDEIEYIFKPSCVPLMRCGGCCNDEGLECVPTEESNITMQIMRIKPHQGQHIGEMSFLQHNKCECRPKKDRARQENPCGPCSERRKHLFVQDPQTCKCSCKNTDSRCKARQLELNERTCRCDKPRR

Take “affinity-purified polyclonal anti-VEGF antibody (R&D Systems AF-293-NA)”: the Counts turned out to be 2.06e+06 in experiment [1]; 2.5e+09 in [2]; 577000 in experiment [3]; 1.26e+06 in [5]; 408 in [6]; 1e+09 in experiment [7]. For the same substance, the Counts in [8] was 310; in experiment [9], 1.19e+09; in experiment [10], 2160; in [11] it was 133000; in experiment [12], 13800; in experiment [13], 6.02e+07. Further, the SBR in experiment [1] came out at 1.3; in experiment [2], 7230; in [3], 3.3; in [5], 7.1; in [6] it was 1.6; in [7], 5680. In addition, the SBR in [8] was determined as 1.2; in [9], 6740; in [10], 234; in experiment [12], 53; in experiment [13], 1010. In addition, in experiment [4], the dissociation constant (Kd) stood at 0.057 nM.

For the substance “affinity-purified polyclonal anti-TNF-α antibody (R&D Systems AF-210-NA)”, the Counts in experiment [14] came out at 590; in experiment [15], 1.79e+07; in experiment [16] it was 1.56e+06; in experiment [17] it was 80000; in experiment [19] it was 1.98e+07; in experiment [20], 2.12e+08. In addition, the Counts in experiment [21] was found to be 260; in experiment [22] it was 443000; in [23] it was 2030; in experiment [24], 1.65e+06; in experiment [25] it was 45400; in experiment [26] it was 443000. Further, the Counts in experiment [27] came out at 1.33e+08; in [28] it was 158000. The SBR in experiment [15] stood at 75; in [16] it was 6.6; in experiment [17] it was 437; in experiment [20] it was 892; in [22], 2.6; in experiment [24] it was 9.7. The SBR in experiment [25] is 21; in experiment [27] it was 780; in [28], 73. This substance gave a dissociation constant (Kd) in [18] of 6.43 nM.
